This note sets out measurements from US20230303715A1.

Experiment [1] deals with FcγRIIaH (UniProt P12318). Nature of the experiment: SPR; KD wt/KD mut vs parental variant. (SPR reads the build-up and loss of mass on a sensor chip optically.)
The target of experiment [2] is FcγRIIaR (UniProt P12318). Nature of the experiment: SPR; KD wt/KD mut vs parental variant.
In experiment [3] the target is FcγRIIb (UniProt P31994). In words: SPR; KD wt/KD mut vs parental variant.
In experiment [4] the target is biotinylated human FcRn (produced by Protocol 1) (human) (UniProt P55899). In words: SPR; KD wt/KD mut vs parental variant.
The target is the same in experiment [5]. In words: SPR Biacore T200, FcRn on neutravidin, pH 6.
Experiment [6] concerns the target FcγRI (UniProt P12314). In words: SPR ProteOn, Ab on HER2 chip, equilibrium fit.
Experiment [7] concerns the target FcγRIII (UniProt P08637). Nature of the experiment: SPR ProteOn, Ab on HER2 chip, equilibrium fit.
Experiment [8] concerns the target FcγRIIaH (UniProt P12318). Nature of the experiment: SPR ProteOn, Ab on HER2 chip, equilibrium fit.
For experiment [9], the target named is FcγRIIaR (UniProt P12318). In words: SPR ProteOn, Ab on HER2 chip, equilibrium fit.
Experiment [10] has as its target FcγRIIb (UniProt P31994). Nature of the experiment: SPR ProteOn, Ab on HER2 chip, equilibrium fit.

Sequence of FcγRIIaH (P12318 34-217 limits assumed): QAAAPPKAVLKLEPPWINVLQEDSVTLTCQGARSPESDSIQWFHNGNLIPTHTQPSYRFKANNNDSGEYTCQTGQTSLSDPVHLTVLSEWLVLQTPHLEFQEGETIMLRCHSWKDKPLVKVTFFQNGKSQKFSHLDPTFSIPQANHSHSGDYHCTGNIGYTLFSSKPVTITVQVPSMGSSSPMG
Sequence of FcγRIIaR (P12318 34-217 H167R limits assumed): as the sequence (P12318 34-217 limits assumed) above, with H134R counted along it
Sequence of biotinylated human FcRn (produced by Protocol 1) (human) (P55899 24-297 limits assumed, chain 1 of 2): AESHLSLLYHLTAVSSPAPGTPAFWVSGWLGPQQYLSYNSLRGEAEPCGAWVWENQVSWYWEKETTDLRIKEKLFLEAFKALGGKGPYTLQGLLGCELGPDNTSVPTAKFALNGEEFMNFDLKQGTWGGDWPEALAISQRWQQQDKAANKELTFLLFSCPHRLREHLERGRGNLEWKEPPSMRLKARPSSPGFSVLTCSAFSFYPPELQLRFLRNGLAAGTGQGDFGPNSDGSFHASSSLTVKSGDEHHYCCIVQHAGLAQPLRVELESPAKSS
Sequence of biotinylated human FcRn (produced by Protocol 1) (human) (P61769 21-119 limits assumed, chain 2 of 2, further chain): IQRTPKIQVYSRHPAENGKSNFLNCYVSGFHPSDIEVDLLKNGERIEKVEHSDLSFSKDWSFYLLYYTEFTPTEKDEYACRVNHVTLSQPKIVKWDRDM
Sequence of FcγRIIb (P31994 43-217 limits assumed): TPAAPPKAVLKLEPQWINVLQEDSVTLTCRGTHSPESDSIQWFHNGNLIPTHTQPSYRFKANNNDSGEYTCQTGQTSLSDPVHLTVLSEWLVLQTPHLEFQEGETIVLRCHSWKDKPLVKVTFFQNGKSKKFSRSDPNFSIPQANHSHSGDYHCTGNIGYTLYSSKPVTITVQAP
Sequence of FcγRIII (P08637 17-208 limits assumed): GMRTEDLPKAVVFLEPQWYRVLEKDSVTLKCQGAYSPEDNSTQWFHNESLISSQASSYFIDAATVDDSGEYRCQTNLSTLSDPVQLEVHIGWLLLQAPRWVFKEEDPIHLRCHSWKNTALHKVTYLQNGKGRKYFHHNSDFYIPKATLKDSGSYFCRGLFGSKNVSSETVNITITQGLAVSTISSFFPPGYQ
Sequence of FcγRI (P12314 16-292 limits assumed): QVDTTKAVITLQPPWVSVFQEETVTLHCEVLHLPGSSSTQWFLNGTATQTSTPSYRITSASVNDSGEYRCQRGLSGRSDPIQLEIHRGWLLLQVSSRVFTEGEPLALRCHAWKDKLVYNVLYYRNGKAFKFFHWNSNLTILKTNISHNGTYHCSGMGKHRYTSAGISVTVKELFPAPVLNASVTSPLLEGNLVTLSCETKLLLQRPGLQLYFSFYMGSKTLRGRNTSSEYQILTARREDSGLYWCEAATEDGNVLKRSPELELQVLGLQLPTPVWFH

For orientation: Kd means the concentration at which binding is half-saturated. Regarding “trastuzumab Scaffold 7 (S239D/I332E) variant v31520 (M428F_T250V) (antibody)”, the Fold in experiment [1] was 1.2; in experiment [2], 1.2; in [3] it was 1.1; in [4], 1.2. For the same substance, the Kd in experiment [5] was 286 nM; in experiment [6], 0.0145 nM; in experiment [7] it was 32.1 nM; in [8], 644 nM; in experiment [9] it was 667 nM; in experiment [10], 1130 nM.
